{"source": "the supplement of paper PMC7125110", "parents": {"B1": {"name": "glmS ribozyme (parent)", "chain": "AUAAAAGCGCCAGAACUACAGAAAUGUAGUUGACGAGGAGGAGGUUUAUCGAAUUUUCGGCGGAUGCCUCCAAA"}}, "conditions_in_all_cases": "with glucosamine-6-phosphate", "key": {"glucosamine-6-phosphate [1]": {"variants_of": "B1", "assay": "self-cleavage kobs at 640 uM GlcN6P; higher = faster cleavage; RNA array", "summary_of_the_method": "(§1)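 kobs was derived by fitting per-tile medians to one- or two-exponential decays after normalising signals to baseline and to non-cleaving reference variants. Those signals came from barcoded ribozyme variants transcribed in situ by E. coli RNA polymerase on sequenced MiSeq chips, followed through a hybridised Cy3 probe at 37 °C and imaged over ~14 h. Glucosamine-6-phosphate (40 μM to 10 mM) in HEPES/KCl/Mg(OAc)2 buffer was flowed in. Weighted Michaelis–Menten fits across concentrations then gave kcat and KM.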"}, "glucosamine-6-phosphate [2]": {"variants_of": "B1", "assay": "self-cleavage kobs at 2500 uM GlcN6P; higher = faster cleavage; RNA array", "summary_of_the_method": "as §1"}, "glucosamine-6-phosphate [3]": {"variants_of": "B1", "assay": "self-cleavage kobs at 10000 uM GlcN6P; higher = faster cleavage; RNA array", "summary_of_the_method": "as §1"}}, "note": "± gives the standard error. Variants at the floor of the assay were thinned out.", "data": [{"variant": "G7U U47G A53U", "values": [{"measurement": "self-cleavage kobs at 640 uM GlcN6P", "setting": "glucosamine-6-phosphate [1]", "result": "< 1e-05", "unit": "s⁻¹"}, {"measurement": "self-cleavage kobs at 2500 uM GlcN6P", "setting": "glucosamine-6-phosphate [2]", "result": "< 1e-05", "unit": "s⁻¹"}]}, {"variant": "C10U G13C A15U C16U C50G", "values": [{"measurement": "self-cleavage kobs at 640 uM GlcN6P", "setting": "glucosamine-6-phosphate [1]", "result": "0.000145 ± 6.3e-05", "unit": "s⁻¹"}, {"measurement": "self-cleavage kobs at 2500 uM GlcN6P", "setting": "glucosamine-6-phosphate [2]", "result": "0.000146 ± 5.6e-05", "unit": "s⁻¹"}]}, {"variant": "A12U U46C A52G A53G", "values": [{"measurement": "self-cleavage kobs at 640 uM GlcN6P", "setting": "glucosamine-6-phosphate [1]", "result": "0.000183 ± 4.4e-05", "unit": "s⁻¹"}, {"measurement": "self-cleavage kobs at 2500 uM GlcN6P", "setting": "glucosamine-6-phosphate [2]", "result": "0.00036 ± 8.9e-05", "unit": "s⁻¹"}]}, {"variant": "A12C G32A U54G", "values": [{"measurement": "self-cleavage kobs at 640 uM GlcN6P", "setting": "glucosamine-6-phosphate [1]", "result": "2.31e-05 ± 1.1e-05", "unit": "s⁻¹"}, {"measurement": "self-cleavage kobs at 2500 uM GlcN6P", "setting": "glucosamine-6-phosphate [2]", "result": "3.03e-05 ± 9.9e-06", "unit": "s⁻¹"}, {"measurement": "self-cleavage kobs at 10000 uM GlcN6P", "setting": "glucosamine-6-phosphate [3]", "result": "0.00014 ± 2.3e-05", "unit": "s⁻¹"}]}, {"variant": "G13C A14G U56C", "values": [{"measurement": "self-cleavage kobs at 640 uM GlcN6P", "setting": "glucosamine-6-phosphate [1]", "result": "6.74e-05 ± 1.6e-05", "unit": "s⁻¹"}, {"measurement": "self-cleavage kobs at 2500 uM GlcN6P", "setting": "glucosamine-6-phosphate [2]", "result": "0.000185 ± 4.6e-05", "unit": "s⁻¹"}]}, {"variant": "A15G A36U U45G U46G A64G", "values": [{"measurement": "self-cleavage kobs at 640 uM GlcN6P", "setting": "glucosamine-6-phosphate [1]", "result": "< 1e-05", "unit": "s⁻¹"}]}, {"variant": "A14U A15G A64C", "values": [{"measurement": "self-cleavage kobs at 640 uM GlcN6P", "setting": "glucosamine-6-phosphate [1]", "result": "< 1e-05", "unit": "s⁻¹"}]}, {"variant": "A42U U69C", "values": [{"measurement": "self-cleavage kobs at 640 uM GlcN6P", "setting": "glucosamine-6-phosphate [1]", "result": "0.0106 ± 0.0031", "unit": "s⁻¹"}, {"measurement": "self-cleavage kobs at 2500 uM GlcN6P", "setting": "glucosamine-6-phosphate [2]", "result": "0.00357 ± 0.0013", "unit": "s⁻¹"}]}, {"variant": "G9U C10U C11A", "values": [{"measurement": "self-cleavage kobs at 640 uM GlcN6P", "setting": "glucosamine-6-phosphate [1]", "result": "< 1e-05", "unit": "s⁻¹"}]}, {"variant": "C8G C11U A15U G29C G41U", "values": [{"measurement": "self-cleavage kobs at 640 uM GlcN6P", "setting": "glucosamine-6-phosphate [1]", "result": "< 1e-05", "unit": "s⁻¹"}, {"measurement": "self-cleavage kobs at 10000 uM GlcN6P", "setting": "glucosamine-6-phosphate [3]", "result": "< 1e-05", "unit": "s⁻¹"}]}, {"variant": "U55A U65C C68U", "values": [{"measurement": "self-cleavage kobs at 640 uM GlcN6P", "setting": "glucosamine-6-phosphate [1]", "result": "0.000206 ± 8.7e-05", "unit": "s⁻¹"}, {"measurement": "self-cleavage kobs at 2500 uM GlcN6P", "setting": "glucosamine-6-phosphate [2]", "result": "0.000114 ± 3.5e-05", "unit": "s⁻¹"}]}, {"variant": "G38C U45A C70G", "values": [{"measurement": "self-cleavage kobs at 640 uM GlcN6P", "setting": "glucosamine-6-phosphate [1]", "result": "< 1e-05", "unit": "s⁻¹"}, {"measurement": "self-cleavage kobs at 10000 uM GlcN6P", "setting": "glucosamine-6-phosphate [3]", "result": "< 1e-05", "unit": "s⁻¹"}]}, {"variant": "G35U U45G C61A", "values": [{"measurement": "self-cleavage kobs at 640 uM GlcN6P", "setting": "glucosamine-6-phosphate [1]", "result": "< 1e-05", "unit": "s⁻¹"}, {"measurement": "self-cleavage kobs at 2500 uM GlcN6P", "setting": "glucosamine-6-phosphate [2]", "result": "< 1e-05", "unit": "s⁻¹"}]}, {"variant": "C16U A36C G38A", "values": [{"measurement": "self-cleavage kobs at 640 uM GlcN6P", "setting": "glucosamine-6-phosphate [1]", "result": "< 1e-05", "unit": "s⁻¹"}, {"measurement": "self-cleavage kobs at 10000 uM GlcN6P", "setting": "glucosamine-6-phosphate [3]", "result": "< 1e-05", "unit": "s⁻¹"}]}, {"variant": "C10U A15C G43U G63U", "values": [{"measurement": "self-cleavage kobs at 640 uM GlcN6P", "setting": "glucosamine-6-phosphate [1]", "result": "< 1e-05", "unit": "s⁻¹"}, {"measurement": "self-cleavage kobs at 2500 uM GlcN6P", "setting": "glucosamine-6-phosphate [2]", "result": "< 1e-05", "unit": "s⁻¹"}]}, {"variant": "A48U A53C C68G C71G", "values": [{"measurement": "self-cleavage kobs at 640 uM GlcN6P", "setting": "glucosamine-6-phosphate [1]", "result": "9.77e-05 ± 3.4e-05", "unit": "s⁻¹"}]}, {"variant": "A12G A39G C50A", "values": [{"measurement": "self-cleavage kobs at 640 uM GlcN6P", "setting": "glucosamine-6-phosphate [1]", "result": "< 1e-05", "unit": "s⁻¹"}]}, {"variant": "G7A G32C G51U", "values": [{"measurement": "self-cleavage kobs at 640 uM GlcN6P", "setting": "glucosamine-6-phosphate [1]", "result": "< 1e-05", "unit": "s⁻¹"}]}, {"variant": "A6C A14G A36G A52C", "values": [{"measurement": "self-cleavage kobs at 640 uM GlcN6P", "setting": "glucosamine-6-phosphate [1]", "result": "< 1e-05", "unit": "s⁻¹"}, {"measurement": "self-cleavage kobs at 2500 uM GlcN6P", "setting": "glucosamine-6-phosphate [2]", "result": "< 1e-05", "unit": "s⁻¹"}]}, {"variant": "A14U G29A U47G C50U A53C C70G", "values": [{"measurement": "self-cleavage kobs at 640 uM GlcN6P", "setting": "glucosamine-6-phosphate [1]", "result": "0.00022 ± 4.5e-05", "unit": "s⁻¹"}, {"measurement": "self-cleavage kobs at 2500 uM GlcN6P", "setting": "glucosamine-6-phosphate [2]", "result": "0.000165 ± 3.4e-05", "unit": "s⁻¹"}]}, {"variant": "U31G G38U U69A C71U", "values": [{"measurement": "self-cleavage kobs at 640 uM GlcN6P", "setting": "glucosamine-6-phosphate [1]", "result": "0.000772 ± 0.0003", "unit": "s⁻¹"}]}, {"variant": "A6G A42C C58U", "values": [{"measurement": "self-cleavage kobs at 640 uM GlcN6P", "setting": "glucosamine-6-phosphate [1]", "result": "< 1e-05", "unit": "s⁻¹"}, {"measurement": "self-cleavage kobs at 2500 uM GlcN6P", "setting": "glucosamine-6-phosphate [2]", "result": "< 1e-05", "unit": "s⁻¹"}]}, {"variant": "C8U G29A U31A G37U A52G C71G", "values": [{"measurement": "self-cleavage kobs at 640 uM GlcN6P", "setting": "glucosamine-6-phosphate [1]", "result": "0.0078 ± 0.0033", "unit": "s⁻¹"}]}, {"variant": "C10U A12C G40A", "values": [{"measurement": "self-cleavage kobs at 640 uM GlcN6P", "setting": "glucosamine-6-phosphate [1]", "result": "< 1e-05", "unit": "s⁻¹"}, {"measurement": "self-cleavage kobs at 2500 uM GlcN6P", "setting": "glucosamine-6-phosphate [2]", "result": "< 1e-05", "unit": "s⁻¹"}]}, {"variant": "G9U A15C A42U", "values": [{"measurement": "self-cleavage kobs at 640 uM GlcN6P", "setting": "glucosamine-6-phosphate [1]", "result": "< 1e-05", "unit": "s⁻¹"}]}, {"variant": "C8U C34G A39G G44U", "values": [{"measurement": "self-cleavage kobs at 640 uM GlcN6P", "setting": "glucosamine-6-phosphate [1]", "result": "< 1e-05", "unit": "s⁻¹"}]}, {"variant": "C10U U46A U49A G62A", "values": [{"measurement": "self-cleavage kobs at 640 uM GlcN6P", "setting": "glucosamine-6-phosphate [1]", "result": "< 1e-05", "unit": "s⁻¹"}, {"measurement": "self-cleavage kobs at 2500 uM GlcN6P", "setting": "glucosamine-6-phosphate [2]", "result": "< 1e-05", "unit": "s⁻¹"}]}, {"variant": "A15C C16U U56C", "values": [{"measurement": "self-cleavage kobs at 640 uM GlcN6P", "setting": "glucosamine-6-phosphate [1]", "result": "7.03e-05 ± 1.8e-05", "unit": "s⁻¹"}, {"measurement": "self-cleavage kobs at 2500 uM GlcN6P", "setting": "glucosamine-6-phosphate [2]", "result": "0.000249 ± 7.3e-05", "unit": "s⁻¹"}]}, {"variant": "A14G A15G C34G U69A", "values": [{"measurement": "self-cleavage kobs at 640 uM GlcN6P", "setting": "glucosamine-6-phosphate [1]", "result": "0.000303 ± 0.00014", "unit": "s⁻¹"}]}, {"variant": "C50G A53C U54A U69A", "values": [{"measurement": "self-cleavage kobs at 640 uM GlcN6P", "setting": "glucosamine-6-phosphate [1]", "result": "0.000691 ± 0.00026", "unit": "s⁻¹"}, {"measurement": "self-cleavage kobs at 2500 uM GlcN6P", "setting": "glucosamine-6-phosphate [2]", "result": "0.000283 ± 0.00011", "unit": "s⁻¹"}]}, {"variant": "A15U G32A U46G C50G", "values": [{"measurement": "self-cleavage kobs at 640 uM GlcN6P", "setting": "glucosamine-6-phosphate [1]", "result": "8.2e-05 ± 2.3e-05", "unit": "s⁻¹"}]}, {"variant": "G13C A42U U57A G63C", "values": [{"measurement": "self-cleavage kobs at 640 uM GlcN6P", "setting": "glucosamine-6-phosphate [1]", "result": "< 1e-05", "unit": "s⁻¹"}, {"measurement": "self-cleavage kobs at 2500 uM GlcN6P", "setting": "glucosamine-6-phosphate [2]", "result": "< 1e-05", "unit": "s⁻¹"}]}]}
